Results: patent US7803572B2, “Protease detection assay” (Atlas Genetics, Ltd., priority 2003, dated 2010)
Where two headings read alike, the source gives them in different places.

How the values were obtained:
[1] = tested on: elastase; assay: Digestion of Fc-BSA with elastase, differential pulse voltammetry; type: biochemical
Experimental: (§1) Protease assays were performed as follows unless stated otherwise. […] Samples were incubated at 37° C. for 1 hour.
A digestion of Fc-BSA with elastase was carried out as described above. […] The positive reaction has a peak position of 430 mV and a peak height of 2.57×10^−7 A; the no elastase control reaction has a peak position of 432 mV and a peak height of 2.55×10^−8 A.

[2] = target: T1, type II bovine pancreas α-chymotrypsin (Bos taurus, UniProt P00766); assay: Digestion of Fc-BSA with α-chymotrypsin, differential pulse voltammetry; type: biochemical
T1 construct: purchased Sigma; host or cells: bovine pancreas
Experimental: as §1
A digestion of Fc-BSA with α-chymotrypsin was carried out as described above. […] The positive reaction has a peak position of 438 mV and a peak height of 4.48×10^−7 A; the no α-chymotrypsin control reaction has a peak position of 432 mV and a peak height of 2.55×10^−8 A.

[3] = target: T2, porcine stomach mucosa pepsin (Sus scrofa, UniProt P00791); assay: Digestion of Fc-BSA with pepsin, differential pulse voltammetry; type: biochemical
T2 construct: purchased Sigma; host or cells: porcine stomach mucosa
Experimental: as §1
A digestion of Fc-BSA with pepsin was carried out as described above. […] The positive reaction has a peak position of 537 mV and a peak height of 8.90×10^−8 A; the no-pepsin control reaction has a peak position of 522 mV and a peak height of 4.19×10^−8 A.

[4] = target: T3, porcine pancreas trypsin (Sus scrofa, UniProt P00761); assay: Digestion of labelled protein with trypsin, differential pulse voltammetry; type: biochemical
T3 construct: purchased Sigma; host or cells: porcine pancreas
Experimental: as §1
A digestion of Fc-BSA with trypsin was carried out as described above. […] The positive reaction has a peak position of 435 mV and a peak height of 4.58×10^−7 A; the no trypsin control reaction has a peak position of 432 mV and a peak height of 2.55×10^−8 A.
A digestion of unlabelled BSA with trypsin was carried out in the same manner as for the labelled molecules as described above. The differential pulse voltammogram results are shown in FIG. 10 in which (a) is the trace for a no-trypsin control reaction and (b) is the trace for trypsin BSA reaction.
A digestion of FcU-BSA with trypsin was carried out as described above. […] The positive reaction has a peak position of 97 mV and a peak height of 5.01×10^−7 A; there was no peak in the no-trypsin control reaction. […]
Five digestions of Fc-BSA with trypsin were carried out using the protocol described above. As described in the general protocol, 2 μl of enzyme was used for each 200 μl reaction; for reaction (i) 10 mg/ml enzyme solution was used; reaction (ii): 1 mg/ml; reaction (iii) 0.1 mg/ml; reaction (iv) 0.01 mg/ml and reaction (v) was a no-trypsin control. The differential pulse voltammogram results are shown in FIG. 14 with baseline correction.
Five digestions of Fc-BSA with trypsin were carried out using the protocol described above. In reaction (i) the incubation at 37° was carried out for 60 minutes, in reaction (ii) for 15 minutes, in reaction (iii) for 5 minutes, in reaction (iv) for 2 minutes and reaction (v) was a 0 minutes no-trypsin control. The differential pulse voltammogram results are shown in FIG. 15 with baseline correction.

[5] = target: Bacillus thermoproteolyticus rokko thermolysin (Bacillus thermoproteolyticus, UniProt P00800); conditions: for peak: no-thermolysin control reaction; for peak height / peak position: positive reaction
Experimental: The low volume cell of FIG. 1 was filled with approximately 10 ml sodium chloride solution (100 mM). A 200 μl aliquot of the sample for analysis was placed in the glass sample chamber which was then placed in the low volume cell along with the reference and counter electrodes. The electrodes were connected to the AUTOLAB electrochemical workstation and differential pulse voltammetry carried out using the parameters described in Table 1. Prior to analysis the glassy carbon working electrode was polished (using BAS polishing kit catalogue number MF-2060) followed by conditioning. Electrode conditioning consists of cyclic voltammetry, sweeping between +−1 volt in the appropriate background buffer.
Protease assays were performed as follows unless stated otherwise. Lyophilised enzymes were re-suspended to give a concentration of 10 mgml^−1. Enzymes were resuspended in the following solutions: HCl (1 mM, pH 3.0) (trypsin, α-chymotrypsin, pepsin), NaCl (100 mM) (proteinase K, elastase, papain, carboxypeptidase, thermolysin). 75 μl of Fc-BSA solution (0.3-0.6 mgml^−1) was used per reaction. Each reaction was carried out in a total volume of 200 μl and the reactions were performed in the following buffers (final concentrations are given): 100 mM tris HCl pH7.8 (trypsin, α-chymotrypsin, thermolysin, proteinase K); 100 mM tris HCl pH 8.5 (elastase); 200 mM sodium acetate, 200 mM cysteine, 20 mM EDTA (papain); 10 mM HCl pH 2.0 (pepsin); 25 mM tris HCl pH7.5, 500 mM NaCl (carboxypeptidase). 2 μl enzyme (10 mgml^−1) was added to the […] reaction mixture. Samples were incubated at 37° C. for 1 hour. The reaction products were analysed by differential pulse voltammetry as described in Example 1.
Baseline corrected data was obtained using GPES MANAGER (Ecochemie BV, Utrecht, Netherlands) selecting baseline correction from the edit data menu, selecting moving average, minimum peak width 0.003V.
A digestion of Fc-BSA with thermolysin was carried out as described above with the digestion incubation at 37° C.
A digestion of Fc-BSA with thermolysin was carried out as described above with the digestion incubation at 70° C.

[6] = no α-chymotrypsin control reaction
[7] = positive reaction, 37° C. for 1 hour
[8] = positive reaction, 10 mM HCl pH 2.0, 37° C. for 1 hour
[9] = Example 6 reaction (i): 2 μl of 10 mg/ml enzyme solution
[10] = Example 6 reaction (ii): 1 mg/ml enzyme solution
[11] = Example 6 reaction (iii): 0.1 mg/ml enzyme solution
[12] = Example 6 reaction (iv): 0.01 mg/ml enzyme solution
[13] = Example 6 reaction (v): no-trypsin control
[14] = Example 7 reaction (i): incubation at 37° for 60 minutes
[15] = Example 7 reaction (ii): 15 minutes
[16] = Example 7 reaction (iii): 5 minutes
[17] = Example 7 reaction (iv): 2 minutes
[18] = Example 7 reaction (v): 0 minutes no-trypsin control
[19] = positive reaction, 2 μl enzyme (10 mgml^−1), 37° C. for 1 hour

T2 sequence (P00791 60-385): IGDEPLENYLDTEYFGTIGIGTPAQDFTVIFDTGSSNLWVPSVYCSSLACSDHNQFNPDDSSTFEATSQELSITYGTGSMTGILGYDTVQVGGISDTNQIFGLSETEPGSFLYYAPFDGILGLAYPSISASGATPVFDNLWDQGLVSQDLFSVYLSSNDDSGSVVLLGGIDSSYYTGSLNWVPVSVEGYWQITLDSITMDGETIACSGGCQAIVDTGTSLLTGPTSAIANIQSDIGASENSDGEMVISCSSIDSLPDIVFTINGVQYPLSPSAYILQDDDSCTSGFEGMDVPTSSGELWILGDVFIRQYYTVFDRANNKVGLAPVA
T3 sequence (P00761 9-231): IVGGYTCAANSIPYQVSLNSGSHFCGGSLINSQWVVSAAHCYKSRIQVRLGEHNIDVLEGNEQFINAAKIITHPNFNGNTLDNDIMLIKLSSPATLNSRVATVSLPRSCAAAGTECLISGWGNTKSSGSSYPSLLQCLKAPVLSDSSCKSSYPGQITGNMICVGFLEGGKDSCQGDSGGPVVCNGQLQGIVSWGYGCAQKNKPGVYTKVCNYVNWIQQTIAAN
Sequence of Bacillus thermoproteolyticus rokko thermolysin (P00800 233-548): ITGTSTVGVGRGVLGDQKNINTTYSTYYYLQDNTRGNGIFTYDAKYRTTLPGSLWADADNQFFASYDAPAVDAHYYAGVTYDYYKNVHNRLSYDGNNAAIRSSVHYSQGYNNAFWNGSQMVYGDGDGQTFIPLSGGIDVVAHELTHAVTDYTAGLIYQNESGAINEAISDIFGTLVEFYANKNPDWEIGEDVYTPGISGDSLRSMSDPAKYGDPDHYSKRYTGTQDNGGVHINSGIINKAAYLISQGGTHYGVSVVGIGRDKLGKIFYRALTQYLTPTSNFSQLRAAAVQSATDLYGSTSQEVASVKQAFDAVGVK

In the case of “Fc-BSA: Bovine serum albumin labelled with ferrocene methanoyl groups via N-hydroxysuccinimide ester; estimated 10 to 20 ferrocenes per BSA”, the peak height ([1]; no elastase control reaction) is reported as 2.55×10^−8 A, the peak height ([1]; positive reaction, tris HCl pH 8.5, 37° C. for 1 hour) is reported as 2.57×10^−7 A and the peak height [2, 6] is reported as 2.55×10^−8 A. For the same substance, the peak position [2, 6] was 432 mV, the peak height [2, 7] was 4.48×10^−7 A and the peak position [2, 7] was 438 mV. The peak height ([3]; no-pepsin control reaction) was 4.19×10^−8 A, the peak position ([3]; no-pepsin control reaction) was 522 mV and the peak height [3, 8] was 8.90×10^−8 A. For the same substance, the peak position [3, 8] was 537 mV, the peak height [4, 9] was 5.42×10^−7 A and the peak position [4, 9] was 430 mV. The peak height [4, 10] was 2.29×10^−7 A, the peak position [4, 10] was 428 mV and the peak height [4, 11] was 1.04×10^−7 A. The peak position [4, 11] was 429 mV, the peak height [4, 12] was 7.53×10^8 A and the peak position [4, 12] was 429 mV. For the same substance, the peak height [4, 13] was 3.17×10^−9 A, the peak position [4, 13] was 448 mV and the peak height [4, 14] was 2.49×10^−7 A. The peak position [4, 14] was 435 mV, the peak height [4, 15] was 1.88×10^−7 A and the peak position [4, 15] was 429 mV. For the same substance, the peak height [4, 16] was 1.57×10^−7 A, the peak position [4, 16] was 435 mV and the peak height [4, 17] was 1.04×10^−7 A. For the same substance, the peak position [4, 17] was 428 mV, the peak height [4, 18] was 2.11×10^−8 A and the peak position [4, 18] was 460 mV. For the same substance, the peak height ([4]; no-trypsin control reaction) was 2.55×10^−8 A, the peak position ([4]; no-trypsin control reaction) was 432 mV and the peak height [4, 19] was 4.58×10^−7 A. For the same substance, the peak position [4, 19] was 435 mV, the “factor by which current observed at 435 mV increases upon digestion” value ([4]; trypsin digestion vs no-trypsin control, FIG. 3) was 18 and the peak ([5]; 37° C.) was “no peak was found”. For the same substance, the peak ([5]; 70° C.) was “no peak was found”, the peak height ([5]; digestion incubation at 37° C.) was 1.62×10^−8 A and the peak position ([5]; digestion incubation at 37° C.) was 429 mV. The peak height ([5]; digestion incubation at 70° C.) was 2.0×10^−8 A and the peak position ([5]; digestion incubation at 70° C.) was 455 mV.
